Data taken from patent publication US6602992B1, “Mammalian prestin polynucleotides” (Northwestern University, priority 2000, dated 2003).

How the values were obtained:
[1] = target: T1, prestin (Meriones unguiculatus, UniProt Q9JKQ2)
T1 sequence (Q9JKQ2 1-744): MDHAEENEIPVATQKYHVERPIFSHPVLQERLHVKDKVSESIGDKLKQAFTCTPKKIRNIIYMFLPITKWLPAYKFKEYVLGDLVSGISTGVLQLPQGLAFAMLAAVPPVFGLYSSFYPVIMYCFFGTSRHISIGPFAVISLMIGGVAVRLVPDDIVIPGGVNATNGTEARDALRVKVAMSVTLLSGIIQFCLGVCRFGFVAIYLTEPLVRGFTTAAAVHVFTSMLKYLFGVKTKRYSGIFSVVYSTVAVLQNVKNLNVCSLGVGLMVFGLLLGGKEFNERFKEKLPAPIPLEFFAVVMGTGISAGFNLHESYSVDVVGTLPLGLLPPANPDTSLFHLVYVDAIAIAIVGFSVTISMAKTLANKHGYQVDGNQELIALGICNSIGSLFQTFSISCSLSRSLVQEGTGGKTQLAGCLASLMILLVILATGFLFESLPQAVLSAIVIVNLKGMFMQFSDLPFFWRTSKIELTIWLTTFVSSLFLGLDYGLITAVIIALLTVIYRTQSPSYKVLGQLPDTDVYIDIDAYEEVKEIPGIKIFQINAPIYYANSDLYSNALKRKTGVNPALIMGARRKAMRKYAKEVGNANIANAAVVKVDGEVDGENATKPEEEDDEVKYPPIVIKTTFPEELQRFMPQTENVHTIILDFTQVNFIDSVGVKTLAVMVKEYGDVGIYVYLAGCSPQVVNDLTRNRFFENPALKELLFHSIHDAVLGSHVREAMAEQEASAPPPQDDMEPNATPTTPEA
Method: (§1) TSA201 cells, clones of human embryonic kidney 293 cells that express the simian virus 40 (SV40) large T-antigen in a stable manner, were cultured in DMEM with 5% fetal calf serum, 100 units of penicillin per millilter, and 100 micrograms of streptomycin per milliliters. Cells were plated for 24 hours before calcium phosphate transfection. The transfection reaction mixture contained:
(§2) a) control plasmid, pcDNA3.1; b) 2 micrograms of Pres cDNA plasmid; c) 2 micrograms of Pres cDNA plasmid plus 0.2 micrograms of green fluorescent protein (GFP) plasmid as transfection marker; or d) 2 micrograms of pendrin cDNA plasmid plus 0.2 micrograms GFP plasmid.
(§3) After 24 hours the transfected cells were used for electrophysiological and physical measurements.
Whole-cell voltage-clamp recordings were made with an Axopatch™ 200B amplifier (Axon Instruments, Foster City, Calif.) Recording pipettes had open tip resistances of 2-3 megaohms and were filled with internal solution containing 140 millimolar CsCl, 2 millimolar MgCl2, 10 millimolar EGTA, and 10 millimolar HEPES at pH 7.2. The external solution contained: 120 millimolar NaCl, 20 millimolar TEA-Cl, 2 millimolar CoCl2, 2 millimolar MgCl2, 10 millimolar HEPES, and 5 millimolar glucose at pH 7.2. Osmolarity was adjusted to 300 milliosmolar per liter with glucose. Capacitive currents were filtered at 5 kilohertz and digitized at 50 kilohertz using pClamp 7.0 software (Axon Instruments).
Voltage-dependent capacitance was measured using two methods. First, a standard P/4 linear subtraction procedure was employed to detect the presence of nonlinear charge movement. After nonlinear transient current was detected, a stair-step voltage protocol was used to obtain the parameters of charge movement. For each voltage step, the measured membrane capacitance (Cm) was plotted as a function of membfane voltage (Vm) and fitted with the derivative of a Boltzmann function: [formula] […]

[2] = target: T1, prestin; conditions: 10 millimolar in external bathing solution, FIG. 6C
Method: as §1, §2, §3
TSA201 cells were drawn into a microchamber with gentle suction (FIG. 6A). The microchamber was mounted on a three-dimensional micromanipulator attached to the stage of a Zeiss inverted microscope. […] The command voltage, delivered between the electrolyte solutions (L15, Gibco BRL) surrounding and filling the microchamber, produces different voltage drops on the included and excluded cell membrane segments, determined by the electrical voltage-divider effect of these membranes. During motility measurements, the location of the cell within the slit was monitored via a video camera placed behind the slit. […]

[3] = tested on: TSA201 cells; assay: Nonlinear capacitance / charge movement conveyed to transiently transfected TSA201 cells; format: cell-based, human; set-up: average charge density: unit not given here; conditions: for nonlinear capacitance: co-transfected with GFP
Method: The transfection reaction mixture contained:
Voltage-dependent capacitance was measured using two methods.
To test the sensor-motor function of prestin, voltage-dependent charge movement was measured in TSA201 cells after transient transfection of unmodified, native Pres cDNA. A second plasmid (pEGFP-N2) containing GFP cDNA was used as an independent marker for successful transfection of the cells. Transfection efficiency was 30-40% as judged from the fluorescence of GFP in transfected cells. […] In experiments conducted on cells co-transfected with prestin and GFP cDNA, transient capacitive currents were obtained from 91.8% of the GFP positive cells. […] The capacitive currents were directed towards the outside as the membrane potential was depolarized and toward the inside as it was hyperpolarized. Charges transferred at command onset and offset were approximately equal. The decay of transient currents was rapid (100-200 microseconds) and could be well-fitted with a single exponential. The voltage protocol used to estimate membrane capacitance and charge transfer across the membrane was an ascending stair-step voltage waveform (FIG. 5B). The membrane capacitance was fitted to the derivative of a first-order Boltzmann equation (FIG. 5C). In a group of seven cells, these curve-fits yielded values of Qmax=1.76±0.20 pC, V1/2=−57.30 ±2.98 mV, 1/a˜=kT/ze=28.00±2.13 mV, and Clin=20.50±2.65 pF, respectively (mean±SEM). The valence can be calculated from a, z=0.91. The average charge density, a possible measure of transiently transfected motor protein density in TSA201 cells, was […]. The numerical values that characterize the charge movement (V1/2, z) are quite similar to those obtained for OHCs. The maximum charge and charge density are less in the transfected cells, even though the linear capacitance is about the same as that of an average OHC. […]

[4] = tested on: TSA201 cells; assay: Electromotility conveyed to transfected TSA201 cells (microchamber); format: cell-based, human; conditions: cells drawn into microchamber, 200 Hertz sinusoid
Text: A change of photocurrent signified cell extension or contraction.

[5] = Boltzmann fit, seven cells, mean±SEM

## O=C([O-])c1ccccc1O.[Na+] [Sodium salicylate, sodium salicylate]
[1]
  effect on charge movement: reversibly blocks charge movement
[1]; 3 cells, after 2-5 minutes of washing in normal extracellular solution without sodium salicylate
  transient currents after recovery, % of control: 88.4±8.8 % of control
[1]; 10 millimolar sodium salicylate applied locally, mean±SEM
  transient currents, % of control: 15.5±2.9 % of control
[2]
  effect on electromotile response: reversible decrease in the electromotile response

B1: human pendrin: chloride-iodide transport protein homologous to prestin, expressed from cDNA as specificity control (protein, UniProt O43511 1-780, looked up)
Pendrin: MAAPGGRSEPPQLPEYSCSYMVSRPVYSELAFQQQHERRLQERKTLRESLAKCCSCSRKRAFGVLKTLVPILEWLPKYRVKEWLLSDVISGVSTGLVATLQGMAYALLAAVPVGYGLYSAFFPILTYFIFGTSRHISVGPFPVVSLMVGSVVLSMAPDEHFLVSSSNGTVLNTTMIDTAARDTARVLIASALTLLVGIIQLIFGGLQIGFIVRYLADPLVGGFTTAAAFQVLVSQLKIVLNVSTKNYNGVLSIIYTLVEIFQNIGDTNLADFTAGLLTIVVCMAVKELNDRFRHKIPVPIPIEVIVTIIATAISYGANLEKNYNAGIVKSIPRGFLPPELPPVSLFSEMLAASFSIAVVAYAIAVSVGKVYATKYDYTIDGNQEFIAFGISNIFSGFFSCFVATTALSRTAVQESTGGKTQVAGIISAAIVMIAILALGKLLEPLQKSVLAAVVIANLKGMFMQLCDIPRLWRQNKIDAVIWVFTCIVSIILGLDLGLLAGLIFGLLTVVLRVQFPSWNGLGSIPSTDIYKSTKNYKNIEEPQGVKILRFSSPIFYGNVDGFKKCIKSTVGFDAIRVYNKRLKALRKIQKLIKSGQLRATKNGIISDAVSTNNAFEPDEDIEDLEELDIPTKEIEIQVDWNSELPVKVNVPKVPIHSLVLDCGAISFLDVVGVRSLRVIVKEFQRIDVNVYFASLQDYVIEKLEQCGFFDDNIRKDTFFLTVHDAILYLQNQVKSQEGQGSILETITLIQDCKDTLELIETELTEEELDVQDEAMRTLAS
[3]
  nonlinear capacitance: None of the GFP-positive cells demonstrated nonlinear capacitance

B2: prestin: gerbil outer hair cell motor protein, 744 amino acids, 81.4 kiloDaltons, SEQ ID NO:1, expressed from Pres cDNA (protein, listed as Meriones unguiculatus)
chain: T1 sequence (Q9JKQ2 1-744)
[3]; [5]
  1/a = kT/ze, slope factor: 28.00±2.13 mV
  Qmax, maximum charge transfer: 1.76±0.20 pC
  V1/2, voltage at which the maximum charge is equally distributed: −57.30 ±2.98 mV
[3]; calculated from a
  valence z: 0.91
[3]; cells transfected with Pres alone
  cells displaying transient capacitive currents: 36.8%
[3]; co-transfected with prestin and GFP cDNA
  GFP positive cells displaying transient capacitive currents: 91.8%
[3]; single exponential
  decay of transient currents: 100-200 microseconds
[3]; transiently transfected TSA201 cells
  average charge density: 5360
[4]
  cells tested showing electromotility: about 22%

B3: N-tagged prestin: full-length prestin with an Xpress epitope located upstream and in-frame (protein, UniProt P58743 1-744, looked up)
chain: MDHAEENEILAATQRYYVERPIFSHPVLQERLHTKDKVPDSIADKLKQAFTCTPKKIRNIIYMFLPITKWLPAYKFKEYVLGDLVSGISTGVLQLPQGLAFAMLAAVPPIFGLYSSFYPVIMYCFLGTSRHISIGPFAVISLMIGGVAVRLVPDDIVIPGGVNATNGTEARDALRVKVAMSVTLLSGIIQFCLGVCRFGFVAIYLTEPLVRGFTTAAAVHVFTSMLKYLFGVKTKRYSGIFSVVYSTVAVLQNVKNLNVCSLGVGLMVFGLLLGGKEFNERFKEKLPAPIPLEFFAVVMGTGISAGFNLKESYNVDVVGTLPLGLLPPANPDTSLFHLVYVDAIAIAIVGFSVTISMAKTLANKHGYQVDGNQELIALGLCNSIGSLFQTFSISCSLSRSLVQEGTGGKTQLAGCLASLMILLVILATGFLFESLPQAVLSAIVIVNLKGMFMQFSDLPFFWRTSKIELTIWLTTFVSSLFLGLDYGLITAVIIALLTVIYRTQSPSYKVLGKLPETDVYIDIDAYEEVKEIPGIKIFQINAPIYYANSDLYSNALKRKTGVNPAVIMGARRKAMRKYAKEVGNANMANATVVKADAEVDGEDATKPEEEDGEVKYPPIVIKSTFPEEMQRFMPPGDNVHTVILDFTQVNFIDSVGVKTLAGIVKEYGDVGIYVYLAGCSAQVVNDLTRNRFFENPALWELLFHSIHDAVLGSQLREALAEQEASAPPSQEDLEPNATPATPEA
modifications: full-length N-terminal Xpress tag
[3]
  nonlinear capacitance: typical nonlinear capacitance curve is observed

B4: C-tagged prestin: full-length prestin tagged at the C-terminus with a V5 epitope (protein, UniProt P58743 1-744, looked up)
chain: B3 chain
modifications: full-length C-terminal V5 tag
[3]
  nonlinear capacitance: typical nonlinear capacitance curve is observed
